According to article PMC7352787:

Experiments:
[1] = target: membrane-bound HLA-G*01:03 on K562 cells (human); assay: flow cytometry on cells; 1 x 10^6 K562 cells presenting HLA-G*01:0x incubated with 200 nM purified sNKG2A/CD94 or sNKG2C/CD94 for 2 h at 37 °C; detection by anti-V5-tag antibody and PE-coupled secondary antibody; three technical replicates
[2] = target: membrane-bound HLA-G*01:04 on K562 cells (human); assay: as above

recombinant soluble heterodimeric NKG2A/CD94 (from UniProt P26715 1-233; Q13241 1-179) (complex)
percent binding (flow cytometry) [1]: 17.4% | percent binding (flow cytometry) [2]: 57.7%
